Our source for the amyloid nucleation score values is the supplement of paper PMC12042874.

± gives the uncertainty stated by the source.

A short description of this data set: amyloid nucleation score (Sup35N fusion, yeast selection) (log enrichment); library NNK1; higher = more nucleation; inactive = no reads after selection. An outline of the steps:
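Nucleation score is defined as the DiMSum log enrichment of output over input reads, with centring on the mode score of non-aggregating sequences. A minimum of 100 input reads was required for each sequence. Reads came from Illumina sequencing of plasmid inserts from psi-negative yeast expressing Sup35N fused to peptides of 20 random codons, induced with 100 μM copper sulfate for 24 hours and grown 7 days at 30°C on medium lacking adenine and uracil.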

Turning to SHRRGVKSTFLMRRLHYMWY, the amyloid nucleation score came out at 0.168 ± 0.62.

Turning to SARHSMAEAMEYYIFGWVPR, the amyloid nucleation score was -1.16 ± 1.2.

In the case of CFPFIFRIGFTNNGADSLVK, the amyloid nucleation score is -0.507 ± 0.63.

Substance WLLIRKGGVRFKIQYRHQHS yielded an amyloid nucleation score of 1.73 ± 0.37.

For the substance VGTTDG, the amyloid nucleation score result was “inactive”.

Substance YTVSNQLLSRLRGVQHNKLK registered an amyloid nucleation score of -1.11 ± 0.92.

For the substance NIIDVTSDSCKPYHILEAIV, the amyloid nucleation score turned out to be 0.015 ± 0.34.

For the substance PLNSRTCGPFARSSIWDWDT, the amyloid nucleation score was 0.937 ± 0.9.

For the substance AYSCDLVELRVCAVSVWEEW, the amyloid nucleation score was determined as 1.42 ± 0.41.

Substance AQSSVKRWGGLCRNVMKDGW displayed an amyloid nucleation score of 0.276 ± 0.32.

In the case of LKGVIYAVANWGWIISGHEV, the amyloid nucleation score is 0.837 ± 0.23.

Substance TFFLVLVSPD had an amyloid nucleation score of 0.059 ± 1.4.

Consider ATTLGCQWDWKWSAFGAWLQ, for which the amyloid nucleation score is -1.08 ± 1.1.

Consider QFFTILCTGILLLNASTRLL, for which the amyloid nucleation score was -0.777 ± 2.4.

In turn, WGAHCGWQF gave an amyloid nucleation score of -0.749 ± 1.3.

DAQWAYYTRTYFWYVFSAVC came in with an amyloid nucleation score of 0.27 ± 0.23.

Substance VYLKEEHGKFAGGPSPRCKP showed an amyloid nucleation score of 0.274 ± 0.46.

FVLSIFYIWGKSPSRTYWMN: the amyloid nucleation score was -0.322 ± 0.74.

In turn, ATVKVPNNSIRNDFFSNDRD showed an amyloid nucleation score of -1.13 ± 1.2.

Take MTDMVVSCCMPAEVQRRSGA: the amyloid nucleation score was 0.009 ± 1.1.

With MICAQSVS, the amyloid nucleation score came out at 0.991 ± 0.24.

In turn, FCARGRNRPN showed an amyloid nucleation score of 1.04 ± 0.5.

Take RYTIDLMSFNIKFWSHTLLH: the amyloid nucleation score was -0.869 ± 1.5.

With EVFNEKSVSLRGWNIHGNFC, the amyloid nucleation score worked out at 0.03 ± 0.94.

FAFRRSI had an amyloid nucleation score of 0.332 ± 0.9.

Take FLLREQQGLTEVMKEV: the amyloid nucleation score worked out at 0.481 ± 0.52.

NARWSGISFQC: the amyloid nucleation score is -0.115 ± 0.87.

Consider EFGFVWVKLCNWGISLLQVN, for which the amyloid nucleation score result was “inactive”.

With DGGNVV, the amyloid nucleation score was determined as 0.452 ± 1.2.

GGSYKEYTLCKHTAP had an amyloid nucleation score of 0.506 ± 0.67.

RMALCKSVCFTFWNIF came in with an amyloid nucleation score of 3.69 ± 0.13.

GLWFVC displayed an amyloid nucleation score of 0.374 ± 0.75.

Substance LRFRMNSLLVKWFFP displayed an amyloid nucleation score of -0.199 ± 0.34.

In the case of GGAQMVHTSQSRCAARGV, the amyloid nucleation score was -0.831 ± 0.7.

As for FSCSVDLKSSHMEVARNGYP, the amyloid nucleation score entry is “inactive”.

The substance CTTNIPAKLHLNSVVRVVRA showed an amyloid nucleation score of -1.27 ± 2.7.

In turn, EMYCVYSFRSYFVYGLSLGS yielded an amyloid nucleation score of -0.269 ± 0.36.

Substance CGITGMATVLNELPKLKHML registered an amyloid nucleation score of 0.202 ± 0.62.

Take FYPYN: the amyloid nucleation score is 0.743 ± 0.79.

Substance VYTDLKGENAGGIIYCGIGS gave an amyloid nucleation score of 0.445 ± 0.26.

Substance ENLRHTLHKFITI came in with an amyloid nucleation score of 0.262 ± 0.62.

In turn, SWKIFIRIMTDYSIQFAYSY displayed an amyloid nucleation score of 1.88 ± 0.098.

Take LGDELDTDAASISSNMEIWS: the amyloid nucleation score entry is “inactive”.

The substance IYCSCPSKQE registered an amyloid nucleation score of -0.075 ± 0.24.

In turn, GGNDHVANLTCNNVAGSRGT displayed an amyloid nucleation score of 4.33 ± 0.14.

Take AGAVLLNVMLCARLQRSEYY: the amyloid nucleation score worked out at 2.17 ± 0.14.

As to RLLGYLAGVGNVKICRPSAV, the amyloid nucleation score came out at 0 ± 1.

As for QNPFSTSHIVRSLLCLNDVI, the amyloid nucleation score result is “inactive”.

As to GCTRNCSKCKGMHSQRHPYP, the amyloid nucleation score is -0.837 ± 2.4.

VCIVPIVYPLFKFSVSNDPT showed an amyloid nucleation score of -0.202 ± 0.57.

As for RFFFGYAK, the amyloid nucleation score came to 2.02 ± 0.2.

With GSSQWFRQVLYFRQSPGWGS, the amyloid nucleation score is -0.33 ± 0.65.

For RNHCVYLECFDLVNHWMPKD, the amyloid nucleation score is -0.24 ± 0.64.

As for VDYMERGYYAYIMVGICI, the amyloid nucleation score entry is “inactive”.

With ISKSFWTRGECCRK, the amyloid nucleation score came to 0.368 ± 0.39.

SPPFQSELMLPLRLSGLVSS yielded an amyloid nucleation score of 1.28 ± 0.93.

As to FKSVFVRTIHATYIVSWAN, the amyloid nucleation score is -0.413 ± 1.5.

Turning to MNMICSFL, the amyloid nucleation score was -1.39 ± 1.4.

The substance IWDSVLF yielded an amyloid nucleation score of 1.57 ± 0.33.

Turning to TGRYISDYCVIKAYVYSICD, the amyloid nucleation score is -0.135 ± 0.39.

The substance FVNIADDRRVYLILSVHGDL yielded an amyloid nucleation score of 6.575 ± 0.05.

Substance YIASMVCDIRKPHPCLVYVL gave an amyloid nucleation score of 0.149 ± 0.42.

As to RLTVTADWHHHWRLVRQFKA, the amyloid nucleation score was -0.044 ± 0.71.

Turning to NDYYCFHRAIFFDTGMYFSN, the amyloid nucleation score is -0.009 ± 0.41.

Substance RCVSFPIWRFIPEVLVIWLG showed an amyloid nucleation score of -1.04 ± 1.3.

With NLGFTRSPHAETSLFTH, the amyloid nucleation score is 0.235 ± 0.47.

Substance RSGMFMGDWYSAAWKGKTSS came in with an amyloid nucleation score of 0.137 ± 0.31.

For GFSIYRCHYFSGRMVTNVSM, the amyloid nucleation score was -0.475 ± 1.7.

HRMGPQVKHIHNIGESKQSE: the amyloid nucleation score is 0.822 ± 0.88.

AMHNSSDGCRFDTYSVCVYW: the amyloid nucleation score is 2.68 ± 0.21.

On to FQLGAHKLRAWLDRGYPEFA, for which the amyloid nucleation score is -0.202 ± 0.64.

Substance MLSGSVAESKNLIQLCAFFM showed an amyloid nucleation score of 6.704 ± 0.047.

WFGTHCVLSYVSTFWSLQSV registered an amyloid nucleation score of -0.275 ± 0.24.

Consider NAGMSLRTFSLYSSWLIVPV, for which the amyloid nucleation score was 0.179 ± 1.

Consider SMTSWWVRGLLPVNGD, for which the amyloid nucleation score is 2.53 ± 0.13.

DTLGRSLLYYIRYSRVNFPV: the amyloid nucleation score result is “inactive”.

Substance LASEHNGASLICTLACTYLW displayed an amyloid nucleation score of -0.642 ± 1.

Regarding TVPIRTTTLSNGAFVWLI, the amyloid nucleation score entry is “inactive”.

In the case of LCVRAIVRSCNSWKKYSFPR, the amyloid nucleation score came to 0.031 ± 1.

Consider KSEYWHSCYVANSPYDYRTV, for which the amyloid nucleation score is -0.422 ± 1.2.

Take ASWTHVIFTYPLGKA: the amyloid nucleation score was found to be 0.035 ± 1.

Consider ECIIYPIVMHVFVQNMM, for which the amyloid nucleation score stood at 1.56 ± 0.28.

Regarding HYLCPVACRGRFVVSQPVNI, the amyloid nucleation score was -1.14 ± 1.5.

IYVLYQIERSVK gave an amyloid nucleation score of -0.154 ± 0.58.

Consider LAPNNYAFHVNKSWGMNLVW, for which the amyloid nucleation score was found to be 1.05 ± 0.2.

For RIYSFHILVS, the amyloid nucleation score is -0.629 ± 0.38.

FIPQFYSVAMKLGCVRFVVL gave an amyloid nucleation score of 0.577 ± 0.56.

For the substance TGVCTGECWYRGLVQSCSGA, the amyloid nucleation score was -0.239 ± 0.53.

Turning to PLYGC, the amyloid nucleation score was found to be 0.634 ± 0.72.

YWDKNFHYMCVARLFIVRLC: the amyloid nucleation score amounted to 0.091 ± 0.7.

SMNHVFYYFIRMWTSM displayed an amyloid nucleation score of 0.156 ± 0.63.

Turning to TWQNRTSLIEVTSYMFHGWV, the amyloid nucleation score is 0.294 ± 0.59.

Take DGTVR: the amyloid nucleation score was 1.62 ± 0.17.

GCTGPHFVYTDGRMHWSGSS had an amyloid nucleation score of -0.529 ± 0.49.

As to NAACLVLGNVSSFEYSSQMG, the amyloid nucleation score came out at 2.41 ± 0.27.

In turn, GPFIVIPK gave an amyloid nucleation score of -0.149 ± 0.64.

As for YMRSLFCISTQLSRAILVLP, the amyloid nucleation score worked out at 0.478 ± 1.

Take LKISWR: the amyloid nucleation score came out at 0.724 ± 0.36.

As to VEGLERLLVLWHWPFAWNYF, the amyloid nucleation score is -0.735 ± 1.4.

Regarding QRNHWLYGVTLMPCSHICIL, the amyloid nucleation score is 7.594 ± 0.053.

With MRSLSVLFGIRTCLTVQWSK, the amyloid nucleation score was found to be 0.276 ± 0.66.

For the substance LGMGLTKLLSNYMSGIIVPL, the amyloid nucleation score was -0.047 ± 1.7.

THFRCH yielded an amyloid nucleation score of 0.762 ± 0.8.

LVWGFFSHRM gave an amyloid nucleation score of 2.37 ± 0.14.

As to LENYDRGDSTRHIDCRLLFL, the amyloid nucleation score was found to be 0.275 ± 0.52.

In the case of PTMLKNRGVLSQPHIIFSYR, the amyloid nucleation score is -0.333 ± 0.34.

In turn, GFCLVVLGYCFYMFYATNNS registered an amyloid nucleation score of 0.042 ± 0.9.

In the case of VNHIWWEFQGVSAYSNFRRD, the amyloid nucleation score was -0.417 ± 1.5.

The substance AVYICPYLQSGNALATDMW displayed an amyloid nucleation score of 0.587 ± 1.1.

RRSQCSVEPGVWHRVRSFLV showed an amyloid nucleation score of 0.35 ± 0.77.

The substance EVEQVHLFSAVINSWCGDVF yielded an amyloid nucleation score of 0.575 ± 0.41.

As for YTWQYAYLCQVMTSFYSGSI, the amyloid nucleation score was -0.269 ± 0.47.

GKSEVLTFGEGAHVGRSRFY registered an amyloid nucleation score of 0.367 ± 0.46.

In turn, GFPRCVWFNSSVIQESSFFV gave an amyloid nucleation score of 0.571 ± 1.2.

NYLLWVQVWCRDWGNWGIMG showed an amyloid nucleation score of 1.41 ± 0.81.

Consider MRYMCVRY, for which the amyloid nucleation score was found to be 0.676 ± 0.46.

Turning to LRAVTWLRYAYQGLFDVDV, the amyloid nucleation score is -0.07 ± 0.56.

ISHNQIWVRIGISRLFQHKV showed an amyloid nucleation score of 2 ± 0.35.

The substance YTVRLM displayed an amyloid nucleation score of 0.125 ± 0.61.

The substance PTVLTVLFNRPFRSCN had an amyloid nucleation score of -0.178 ± 0.61.

Consider FRHGKVWSLLKLGADAGREE, for which the amyloid nucleation score was 0.098 ± 0.91.

Substance AWDVAS displayed an amyloid nucleation score of 0.967 ± 0.6.

Substance DLIMFD came in with an amyloid nucleation score of -0.029 ± 0.73.

HLSLPNVPVALWKRSRPVTM registered an amyloid nucleation score of 1.26 ± 0.85.

IASLRIIDSIQFISVNSCYG yielded an amyloid nucleation score of 0.356 ± 0.4.

With NLGYDCGLGAMSGWMRWLIS, the amyloid nucleation score amounted to 0.459 ± 0.64.

RGGWRTVQCSLNQGWLRRYL: the amyloid nucleation score came to 0.048 ± 0.42.

On to MVTTWVHGYVWRANGQTLFR, for which the amyloid nucleation score came out at 1.28 ± 0.7.

As to PTGNGKLFSGKYYPYDVRRS, the amyloid nucleation score is -0.169 ± 0.29.

For LLNFCIWAKCWYRLVCNC, the amyloid nucleation score stood at 0.209 ± 0.93.

As for LKTYFGVVSRTLGLCLREEI, the amyloid nucleation score stood at 0.489 ± 0.43.

Take LYGNT: the amyloid nucleation score is 1.37 ± 0.38.

RSGIILLVGVS displayed an amyloid nucleation score of -0.655 ± 0.68.

LDLAGGKG gave an amyloid nucleation score of 1.74 ± 0.14.

LFRNANAMDYVVRCWCSRGI had an amyloid nucleation score of 0.928 ± 0.18.

The substance SAAVGLLVHQYRSSELQLFN displayed an amyloid nucleation score of 0.136 ± 1.

MERDEFKFLGERLGWLSCWR had an amyloid nucleation score of 1.04 ± 0.57.

As for KFRDPYCKHRWAGLGKQSGD, the amyloid nucleation score worked out at 0.052 ± 0.4.

In the case of DSDGFQRVPD, the amyloid nucleation score was -0.736 ± 0.68.
